Values quoted from earlier work, collected in PMC10171305.
Where two headings read alike, the source gives them in different places.

Columns and labels:
Spike (SARS-CoV-2) [1] = biological target: Spike (SARS-CoV-2) (UniProt P0DTC2)
Spike (SARS-CoV-2) [2] = biological target: Spike (SARS-CoV-2) (UniProt P0DTC2); remark: listed apart in the source

Chain of ASGR1 (P07306 whole entry): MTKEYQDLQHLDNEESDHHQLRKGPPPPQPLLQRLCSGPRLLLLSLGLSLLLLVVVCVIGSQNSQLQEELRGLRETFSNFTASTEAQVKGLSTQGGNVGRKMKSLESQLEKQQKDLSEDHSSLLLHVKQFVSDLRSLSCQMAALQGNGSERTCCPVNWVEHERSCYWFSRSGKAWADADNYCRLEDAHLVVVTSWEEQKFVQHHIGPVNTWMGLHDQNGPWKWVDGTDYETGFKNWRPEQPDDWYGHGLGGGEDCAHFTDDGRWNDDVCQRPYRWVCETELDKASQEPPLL
Chain of KREMEN1 (Q96MU8 20-392): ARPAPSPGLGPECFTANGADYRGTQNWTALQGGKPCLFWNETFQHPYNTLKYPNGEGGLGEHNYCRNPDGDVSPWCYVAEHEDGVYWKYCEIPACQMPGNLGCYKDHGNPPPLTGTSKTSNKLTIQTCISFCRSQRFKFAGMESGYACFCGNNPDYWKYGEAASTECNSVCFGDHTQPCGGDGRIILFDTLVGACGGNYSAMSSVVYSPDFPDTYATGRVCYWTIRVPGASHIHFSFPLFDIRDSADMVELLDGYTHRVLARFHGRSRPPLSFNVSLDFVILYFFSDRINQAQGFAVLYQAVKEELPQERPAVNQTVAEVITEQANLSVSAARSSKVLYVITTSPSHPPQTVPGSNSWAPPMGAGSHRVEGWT

Substance | Kd (Spike (SARS-CoV-2) [1]) [nM] | Kd (Spike (SARS-CoV-2) [2]) [nM]
ASGR1 (from UniProt P07306) | 94.8 | –
KREMEN1 (from UniProt Q96MU8) | – | 19.3
